From patent publication US20090280135A1 come the findings set out here.

Assay [1] addresses TCR of the MBP-69-89 specific short-term rat T-cell line (rat). The assay can be described thus: cell-based or functional assay.
Assay [2] concerns the target rat BV8S2 TCR of the A1 T-cell hybridoma (C14/BW12-12A1), specific for Gp-BP-72-89 (rat). Put plainly: flow cytometry on A1 hybridoma, 10 µM complex, 17 h at 4 C, detection with OX6-PE. A general note: Flow cytometry measures light scatter and fluorescence of single cells or particles in a stream.
For assay [3] the target is unchanged. The assay can be described thus: flow cytometry on A1 hybridoma.
Assay [4] shares this target. The assay can be described thus: flow cytometry on A1 hybridoma with directly A488-labelled complex, 3 h at 4 C.
In assay [5] the target is TCR of the cardiac myosin CM-2-specific cell line (rat). The assay can be described thus: flow cytometry on CM-2 cell line (blocked with unconjugated OX6), 10 µM complex, detection with OX6-PE.

B1: β1α1/MBP-69-89 complex (rat RT1.B β1α1 construct loaded with MBP-69-89 peptide) (peptide-MHC)
chain: MGRDSPRDFVYQFKGLCYYTNGTQRIRDVIRYIYNQEEYLRYDSDVGEYRALTELGRPSAEYFNKQYLEQTRAELDTVCRHNYEGSEVRTSLRRLGGQDDIEADHVAAYGINIYQYYESRGQFTHEFDGDEEFYVDLDKKETIWRIPEFGQLTSFDPQGGLQNIAIIKHNLEILMKRSNSTQAVN
peptide: GSLPQKSQRSQDENPVVHF
In the case of B1, the inhibition of proliferation ([3H]thymidine) of MBP-69-89 specific T-cell line after pre-treatment with 10 nM complex in assay [1] is greater than 90%. In assay [2], this molecule registered a mean fluorescence intensity (MFI) of 800 Units. Besides, in assay [3], the fold increase in MFI over background was 10 fold.

B2: A488-conjugated β1α1 loaded with MBP-69-89 (peptide-MHC)
chain: MGRDSPRDFVYQFKGLCYYTNGTQRIRDVIRYIYNQEEYLRYDSDVGEYRALTELGRPSAEYFNKQYLEQTRAELDTVCRHNYEGSEVRTSLRRLGGQDDIEADHVAAYGINIYQYYESRGQFTHEFDGDEEFYVDLDKKETIWRIPEFGQLTSFDPQGGLQNIAIIKHNLEILMKRSNSTQAVN
peptide: GSLPQKSQRSQDENPVVHF
modifications: Alexa-488 dye conjugated (molar ratio dye/protein=1), site not stated
B2 showed an MCI in assay [4] of 300 Units.

B3: β1α1/MBP-55-69 complex (rat RT1.B β1α1 loaded with Gp-MBP-55-69 peptide) (peptide-MHC)
chain: MGRDSPRDFVYQFKGLCYYTNGTQRIRDVIRYIYNQEEYLRYDSDVGEYRALTELGRPSAEYFNKQYLEQTRAELDTVCRHNYEGSEVRTSLRRLGGQDDIEADHVAAYGINIYQYYESRGQFTHEFDGDEEFYVDLDKKETIWRIPEFGQLTSFDPQGGLQNIAIIKHNLEILMKRSNSTQAVN
peptide: SGKDSHHAARTTHYG
B3: in assay [1], the inhibition of proliferation ([3H]thymidine) of MBP-69-89 specific T-cell line after pre-incubation with 20 µM complex was found to be 27%.

B4: β1α1/CM-2 complex (rat RT1.B β1α1 construct loaded with cardiac myosin peptide CM-2) (peptide-MHC)
chain: MGRDSPRDFVYQFKGLCYYTNGTQRIRDVIRYIYNQEEYLRYDSDVGEYRALTELGRPSAEYFNKQYLEQTRAELDTVCRHNYEGSEVRTSLRRLGGQDDIEADHVAAYGINIYQYYESRGQFTHEFDGDEEFYVDLDKKETIWRIPEFGQLTSFDPQGGLQNIAIIKHNLEILMKRSNSTQAVN
peptide: KLELQSALEEAEASLEH
Take B4: in assay [5], the mean fluorescence intensity (MFI) stood at 1800 Units.
